Laboratory results published in the supplement of paper PMC12764529.
± gives the half width of the 95% confidence interval.

Columns and labels:
[1] = folding stability dG unfold from trypsin proteolysis; higher = more stable
How it was run: (§1)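 Digests were run with trypsin and chymotrypsin at 11 concentrations in threefold dilutions, plus a no-protease condition, on designed mini-proteins in a PA-tagged cDNA display construct. The mini-proteins were under 80 residues, had no cysteine, and were kept only when AlphaFold2 dimer inter-PAE was above 15. After sequencing, Bayesian fitting of the counts gave K50, from which unfolding free energy was derived against a sequence-predicted unfolded-state K50 and a shared folded-state K50, per protease or combined.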

[2] = folding stability dG unfold from chymotrypsin proteolysis; higher = more stable
How it was run: as §1

[3] = folding stability dG unfold (combined trypsin and chymotrypsin); higher = more stable
How it was run: as §1

Sequence	folding stability dG unfold [1]	folding stability dG unfold [2]	folding stability dG unfold [3]
SAGGSAGGSAMLLPSEEEAEKAAAELRAKTGWRVTVEKVGTGEDGTVVYRLTVVPPDLPLESAGGSAGGSAG [r3_59_JUSTAS]	11.9 ± 0.201 kJ/mol	13.53 ± 0.0795 kJ/mol	13.1 ± 0.251 kJ/mol
SAGGSAGGSAMLVALVRVPGTDKPVVARLPREIGREAAEELLREAFPDAEVLEIVEVPEEELSAGGSAGGSA [r18_242_TrMRF]	1.87 ± 0.13 kJ/mol	7.161 ± 0.0502 kJ/mol	5.96 ± 0.13 kJ/mol
SAGGSAGGSAMPVIELTIKVKTKEEAKKAAEELAKKLEEEFGLKVEVEYDEETKEVKVKIYPSAGGSAGGSA [r18_368_TrROS_Hall]	9.4 ± 0.502 kJ/mol	7.49 ± 0.285 kJ/mol	8.65 ± 0.372 kJ/mol
SAGGSAGGSAMQPIRIKITLYNPDNGDTRTYTVEVPDPNMSLDAIAKQLPPGYRIKKVSIMSAGGSAGGSAG [r3_80_TrROS]	14.1 ± 0.544 kJ/mol	15.96 ± 0.138 kJ/mol	15.4 ± 0.544 kJ/mol
SAGGSAGGSAMQRVEIYFPGLKKVFTKPFKSLEEVEEAVKELLGPEYNPEKVEIKILPENAESAGGSAGGSA [r18_350_TrMRF]	3.82 ± 0.226 kJ/mol	6.26 ± 0.586 kJ/mol	5.32 ± 0.711 kJ/mol
SAGGSAGGSAMRPVSFTLVSTETAPNGVKVTKYVLTEPTGPAREYTSTNLLVEGSSLTDLSSAGGSAGGSAG [r3_261_JUSTAS]	0.185 ± 0.351 kJ/mol	0.998 ± 0.418 kJ/mol	0.844 ± 0.364 kJ/mol
SAGGSAGGSAMTFTVNSEEEVEKLKKLGGVTKTSEEPGKVTLSAPNLPPELQEKIKEVIQKSAGGSAGGSAG [r3_398_JUSTAS]	-2.29 ± 0.837 kJ/mol	1.82 ± 1.13 kJ/mol	-0.464 ± 1.09 kJ/mol
SAGGSAGGSAMTIEELAKKGYEIRIVGPDGKVRTFKVGESLEEIAEKLGLAPGAKIEIRKVSAGGSAGGSAG [r3_216_TrROS_Hall]	6.21 ± 0.1 kJ/mol	8.68 ± 0.113 kJ/mol	7.85 ± 0.205 kJ/mol
SAGGSAGGSAMTIEQIANELAKKLGVDIKVVVTYENGEKKEYRPDELKNIPPGPFTVEFYTDSAGGSAGGSA [r18_394_TrMRF]	12.6 ± 0.402 kJ/mol	15.5 ± 0.418 kJ/mol	14.7 ± 0.628 kJ/mol
SAGGSAGGSAMTIEVTVPPEVPEEEAAERVARALRELFPIPEIKVSVERRPDGIIKVTVEGGSAGGSAGGSA [r18_1_TrMRF]	3.39 ± 0.167 kJ/mol	3.78 ± 0.218 kJ/mol	3.72 ± 0.418 kJ/mol
SAGGSAGGSAMTITITGLSPEQIEEAAKALGATVTFDKETKTVTITVSPEQLEKLKELLEKSAGGSAGGSAG [r3_354_TrROS_Hall]	14.7 ± 0.586 kJ/mol	15 ± 0.502 kJ/mol	15 ± 0.753 kJ/mol
SAGGSAGGSAMTITKTITFSSKEEAEKFVKELEEKGNITITMTYEKLPSGKYKVTVTITKPSAGGSAGGSAG [r3_273_JUSTAS]	15.1 ± 0.879 kJ/mol	15.5 ± 0.205 kJ/mol	15.4 ± 0.837 kJ/mol
SAGGSAGGSAMTIVVKSEEEAKKLAELLNAEVVEEKDGYLTIKLEGMSEEERKKILELLKKSAGGSAGGSAG [r3_398_TrROS_Hall]	8.21 ± 0.544 kJ/mol	12.7 ± 0.711 kJ/mol	11.3 ± 0.46 kJ/mol
SAGGSAGGSAMTLKEKAEAIEKEKGVKITVTVTYPDGTVRTLTPEELSSIPPGPYTLSFTTPSAGGSAGGSA [r18_394_JUSTAS]	7.26 ± 0.0962 kJ/mol	6.03 ± 0.669 kJ/mol	7 ± 0.414 kJ/mol
SAGGSAGGSAMTPPEELKEKIAAEVSPDTTVTETFPEEPLVVKITRNPSGTITVEVVSPEELSAGGSAGGSA [r18_61_JUSTAS]	-1.75 ± 0.46 kJ/mol	3.79 ± 0.205 kJ/mol	2.28 ± 0.368 kJ/mol
SAGGSAGGSAMTPVTTTQTISFPGSEEEARAEAERIREELEAKGLTVSFEFLPGGTLKITVASAGGSAGGSA [r18_262_JUSTAS]	13.3 ± 0.268 kJ/mol	10.03 ± 0.0879 kJ/mol	11.5 ± 0.159 kJ/mol
SAGGSAGGSAMTRDVTIKVPPGVTPEEVFEKLKKENPNVTSYTTTTLPDGTITVTITIEDSSAGGSAGGSAG [r3_371_JUSTAS]	16.5 ± 0.962 kJ/mol	16.9 ± 0.502 kJ/mol	17 ± 0.795 kJ/mol
SAGGSAGGSAMTVPLDTLTPERLRELLAENPERVVLKSADSVLVLSRDPATGRLTVTSHELRSAGGSAGGSA [r18_75_JUSTAS]	3.98 ± 0.046 kJ/mol	5.63 ± 0.0586 kJ/mol	5.09 ± 0.092 kJ/mol
SAGGSAGGSAMVLNVPLEELLKLLGVPKEEVSYKKLEDESYELTLPDGTKVKVIVPKEILESAGGSAGGSAG [r3_477_JUSTAS]	11.8 ± 0.41 kJ/mol	12 ± 0.151 kJ/mol	12.2 ± 0.544 kJ/mol
SAGGSAGGSAMYTISYDPSTGTVTVSTPSGTTTTVPVADGPVTLTVTNPDGTTTTITLEGASAGGSAGGSAG [r3_499_JUSTAS]	10.7 ± 0.389 kJ/mol	10.1 ± 0.121 kJ/mol	10.2 ± 0.285 kJ/mol
SAGGSAGGSAMYVKVTFTYPDGSTTTVTTQLDEEEAKKLVEELAPLPVEAKLEIIPEDVPESAGGSAGGSAG [r3_35_JUSTAS]	1.44 ± 0.305 kJ/mol	1.04 ± 0.962 kJ/mol	2.74 ± 0.711 kJ/mol

Sequence	folding stability dG unfold [1]	folding stability dG unfold [2]	folding stability dG unfold [3]
SAGGSAGGSANFKILAVEVQPAGNGIMVRAIIEFPDGWIIKFSFWFRNDGIKINIEIVPLDDSAGGSAGGSA [r18_79_TrROS]	19.7 ± 0.628 kJ/mol	23.8 ± 0.502 kJ/mol	23.7 ± 0.711 kJ/mol
SAGGSAGGSANGWVFMIHFNIEQEPVPAEELGMPPGDPGYEDMYVIKIKSISFFWVPAGDFSAGGSAGGSAG [r3_488_TrROS]	13.7 ± 0.377 kJ/mol	19.8 ± 0.502 kJ/mol	18.3 ± 0.356 kJ/mol
SAGGSAGGSAPATITSIEVEERTGPDGRTYRVLRVRLADTGEEVEIVVPGMSLEEVLAALASSAGGSAGGSA [r18_345_TrROS_Hall]	12 ± 0.13 kJ/mol	12.29 ± 0.0795 kJ/mol	12.2 ± 0.343 kJ/mol
SAGGSAGGSAPETSLTSTFEFRFEVDGELYAVRIERRVLLSADGDLRVETRIEIIPIPPDVPASAGGSAGGS [r12_927_TrMRF]	15.6 ± 0.544 kJ/mol	21.4 ± 0.502 kJ/mol	20 ± 0.46 kJ/mol
SAGGSAGGSAPFNINDPNIGEVEIFPGPNAVILIKLPDGGYLVITNNGEDNVSIELVSDDESAGGSAGGSAG [r3_62_TrMRF]	7.21 ± 0.544 kJ/mol	1.96 ± 0.669 kJ/mol	4.81 ± 0.628 kJ/mol
SAGGSAGGSAPFQIEDIEVEYHRMPPGMPYYPVRARLPGTGREVEIHMPGMPVEDVLDRIIDSAGGSAGGSA [r18_345_TrROS]	-1.87 ± 0.544 kJ/mol	-0.094 ± 0.368 kJ/mol	-0.591 ± 0.255 kJ/mol
SAGGSAGGSAPKIIVVKPEDIVEAVKKADPNEKVLLFDPETGEIYEITPDKMEFIEKIPPGESAGGSAGGSA [r18_246_TrMRF]	0.191 ± 0.544 kJ/mol	3.7 ± 0.163 kJ/mol	1.95 ± 0.92 kJ/mol
SAGGSAGGSAPMKIDEITDVYPNPNRPKIIIKWRGPNGQPMVFDPENGKWMTPEEALDALKSAGGSAGGSAG [r3_206_TrROS]	2.39 ± 0.247 kJ/mol	4.69 ± 0.259 kJ/mol	3.91 ± 0.192 kJ/mol
SAGGSAGGSAPNLKLKIKLDIHVFPDGWLYVSTKIEIENPGKPVEFTIMFRFPIPPNEPAPSAGGSAGGSAG [r3_383_TrROS]	16.1 ± 1.13 kJ/mol	22.4 ± 0.628 kJ/mol	21.6 ± 1.13 kJ/mol
SAGGSAGGSAPNQTWVLRITIKFPNGKKRSFQFTFPLDDIKEEIEEEFGIDDIDIEWQPLDSAGGSAGGSAG [r3_220_TrROS]	11 ± 0.255 kJ/mol	11.6 ± 0.289 kJ/mol	11.9 ± 0.502 kJ/mol
SAGGSAGGSAPPGQEFPFEPVEEESIPIYDPDNGEPPLTISVWKMRMPGGPPMTFIMISPMSAGGSAGGSAG [r3_166_TrROS]	8.03 ± 0.142 kJ/mol	9.71 ± 0.18 kJ/mol	9.08 ± 0.289 kJ/mol
SAGGSAGGSAPPGQQLRVRIRIYNPNNGEPKREREFPGMTVDDLKEWAQKNGWRIREIEVDSAGGSAGGSAG [r3_423_TrROS]	2.34 ± 0.418 kJ/mol	6.22 ± 0.837 kJ/mol	5.44 ± 0.397 kJ/mol
SAGGSAGGSAPPLKIVIRIEFPDPNGKKQEYEIPADYPLEQVKDNAEEPFPGAKIENIEVVSAGGSAGGSAG [r3_60_TrROS]	4.26 ± 0.238 kJ/mol	5.58 ± 0.297 kJ/mol	5.05 ± 0.205 kJ/mol
SAGGSAGGSAPPNVEIKLTMEPYKPPDGNKYYRIPIEVNKKPWQAKEIADWLQPEGFRIEPSAGGSAGGSAG [r3_157_TrROS]	0.997 ± 0.753 kJ/mol	0.637 ± 1.72 kJ/mol	0.631 ± 0.962 kJ/mol
SAGGSAGGSAPPPAKVKVITITETRVTYDPDTDELTVETVTLTLVVAPDGHIYVDGRWIPAEDLSAGGSAGG [r6_514_TrROS_Hall]	12.1 ± 0.268 kJ/mol	15.4 ± 0.586 kJ/mol	14.1 ± 0.46 kJ/mol
SAGGSAGGSAPPVVRVTVPLPDGSVLEVEYFPDTGLVRVTLVDADGTPTTVTLPAAEVLALFSAGGSAGGSA [r18_219_TrMRF]	8.55 ± 0.176 kJ/mol	12.66 ± 0.0795 kJ/mol	11.4 ± 0.188 kJ/mol
SAGGSAGGSAPRPIEIMFPWDSPEDAHEEAEEIARTFAQEDNIKVKVEYYPREGWVKVKIRVSAGGSAGGSA [r18_368_TrROS]	5.06 ± 0.356 kJ/mol	6.56 ± 1.42 kJ/mol	5.77 ± 0.879 kJ/mol
SAGGSAGGSAPVIRIEVDGKVYEIPADVLKEKGLTIEELAEELEKKHNIKVEKVEDGTIRVTSAGGSAGGSA [r18_7_TrROS_Hall]	6.96 ± 0.28 kJ/mol	10.1 ± 0.163 kJ/mol	8.78 ± 0.326 kJ/mol
SAGGSAGGSAPVPINITFPDGSVAVNGSPDVAYLYFPEKGTIYRIPIDPDTNIITIEEVFKVPSAGGSAGGS [r12_539_TrMRF]	3.11 ± 0.18 kJ/mol	4.33 ± 0.28 kJ/mol	4.03 ± 0.209 kJ/mol
SAGGSAGGSAPYFVRIKIENPDNGKPHSIEIPPNMTPEQAKEMAEELAEMHGWKITDVEYFPSAGGSAGGSA [r18_322_TrROS]	0.951 ± 0.368 kJ/mol	1.81 ± 0.46 kJ/mol	1.55 ± 0.285 kJ/mol
SAGGSAGGSAQWVIRIKMPNGSTRELRIPGMTPEKAREIAKELADQNNIKDVDIYPPGQKISAGGSAGGSAG [r3_160_TrROS]	4.11 ± 0.172 kJ/mol	1.64 ± 0.711 kJ/mol	3.04 ± 0.418 kJ/mol
